This note sets out measurements from IntAct's records for PubMed 19258017.

The chains are these.
B1: Cellulose synthase A catalytic subunit 7 [UDP-forming] (Arabidopsis thaliana (Mouse-ear cress)), Q9SWW6 (parent)
chain: MEASAGLVAGSHNRNELVVIHNHEEPKPLKNLDGQFCEICGDQIGLTVEGDLFVACNECGFPACRPCYEYERREGTQNCPQCKTRYKRLRGSPRVEGDEDEEDIDDIEYEFNIEHEQDKHKHSAEAMLYGKMSYGRGPEDDENGRFPPVIAGGHSGEFPVGGGYGNGEHGLHKRVHPYPSSEAGSEGGWRERMDDWKLQHGNLGPEPDDDPEMGLIDEARQPLSRKVPIASSKINPYRMVIVARLVILAVFLRYRLLNPVHDALGLWLTSVICEIWFAVSWILDQFPKWFPIERETYLDRLSLRYEREGEPNMLAPVDVFVSTVDPLKEPPLVTSNTVLSILAMDYPVEKISCYVSDDGASMLTFESLSETAEFARKWVPFCKKFSIEPRAPEMYFTLKVDYLQDKVHPTFVKERRAMKREYEEFKVRINAQVAKASKVPLEGWIMQDGTPWPGNNTKDHPGMIQVFLGHSGGFDVEGHELPRLVYVSREKRPGFQHHKKAGAMNALVRVAGVLTNAPFMLNLDCDHYVNNSKAVREAMCFLMDPQIGKKVCYVQFPQRFDGIDTNDRYANRNTVFFDINMKGLDGIQGPVYVGTGCVFKRQALYGYEPPKGPKRPKMISCGCCPCFGRRRKNKKFSKNDMNGDVAALGGAEGDKEHLMSEMNFEKTFGQSSIFVTSTLMEEGGVPPSSSPAVLLKEAIHVISCGYEDKTEWGTELGWIYGSITEDILTGFKMHCRGWRSIYCMPKRPAFKGSAPINLSDRLNQVLRWALGSVEIFFSRHSPLWYGYKGGKLKWLERFAYANTTIYPFTSIPLLAYCILPAICLLTDKFIMPPISTFASLFFISLFMSIIVTGILELRWSGVSIEEWWRNEQFWVIGGISAHLFAVVQGLLKILAGIDTNFTVTSKATDDDDFGELYAFKWTTLLIPPTTVLIINIVGVVAGISDAINNGYQSWGPLFGKLFFSFWVIVHLYPFLKGLMGRQNRTPTIVVIWSVLLASIFSLLWVRIDPFVLKTKGPDTSKCGINC
partner: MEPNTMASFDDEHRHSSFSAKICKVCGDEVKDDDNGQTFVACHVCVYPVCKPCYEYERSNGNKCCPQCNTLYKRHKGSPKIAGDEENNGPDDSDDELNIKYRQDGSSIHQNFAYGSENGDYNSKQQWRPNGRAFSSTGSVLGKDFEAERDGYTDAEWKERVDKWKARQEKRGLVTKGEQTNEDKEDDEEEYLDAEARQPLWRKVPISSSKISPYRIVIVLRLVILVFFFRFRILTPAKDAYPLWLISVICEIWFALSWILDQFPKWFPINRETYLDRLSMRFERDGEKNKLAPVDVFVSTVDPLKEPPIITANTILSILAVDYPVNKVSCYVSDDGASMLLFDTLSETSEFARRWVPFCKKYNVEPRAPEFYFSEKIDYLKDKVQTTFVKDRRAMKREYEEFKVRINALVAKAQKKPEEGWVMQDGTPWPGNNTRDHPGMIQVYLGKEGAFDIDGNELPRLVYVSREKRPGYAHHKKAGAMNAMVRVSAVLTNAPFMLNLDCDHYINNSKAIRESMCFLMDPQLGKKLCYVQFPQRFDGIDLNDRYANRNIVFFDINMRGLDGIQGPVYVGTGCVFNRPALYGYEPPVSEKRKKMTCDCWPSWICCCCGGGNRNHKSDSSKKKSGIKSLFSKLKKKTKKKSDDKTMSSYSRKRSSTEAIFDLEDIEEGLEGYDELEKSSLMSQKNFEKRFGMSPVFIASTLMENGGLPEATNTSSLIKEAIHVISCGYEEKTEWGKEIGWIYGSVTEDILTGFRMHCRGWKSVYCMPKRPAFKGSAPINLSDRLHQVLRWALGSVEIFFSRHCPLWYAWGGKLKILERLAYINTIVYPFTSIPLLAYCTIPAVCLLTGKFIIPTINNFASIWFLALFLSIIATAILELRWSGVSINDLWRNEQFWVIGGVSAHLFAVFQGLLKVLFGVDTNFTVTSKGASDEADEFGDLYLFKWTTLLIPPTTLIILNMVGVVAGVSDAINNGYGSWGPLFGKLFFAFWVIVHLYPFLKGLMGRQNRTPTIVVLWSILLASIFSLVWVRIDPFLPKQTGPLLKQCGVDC
B2: Cellulose synthase A catalytic subunit 7 [UDP-forming] (Arabidopsis thaliana (Mouse-ear cress)), Q9SWW6 (parent)
chain: B1 chain
partner: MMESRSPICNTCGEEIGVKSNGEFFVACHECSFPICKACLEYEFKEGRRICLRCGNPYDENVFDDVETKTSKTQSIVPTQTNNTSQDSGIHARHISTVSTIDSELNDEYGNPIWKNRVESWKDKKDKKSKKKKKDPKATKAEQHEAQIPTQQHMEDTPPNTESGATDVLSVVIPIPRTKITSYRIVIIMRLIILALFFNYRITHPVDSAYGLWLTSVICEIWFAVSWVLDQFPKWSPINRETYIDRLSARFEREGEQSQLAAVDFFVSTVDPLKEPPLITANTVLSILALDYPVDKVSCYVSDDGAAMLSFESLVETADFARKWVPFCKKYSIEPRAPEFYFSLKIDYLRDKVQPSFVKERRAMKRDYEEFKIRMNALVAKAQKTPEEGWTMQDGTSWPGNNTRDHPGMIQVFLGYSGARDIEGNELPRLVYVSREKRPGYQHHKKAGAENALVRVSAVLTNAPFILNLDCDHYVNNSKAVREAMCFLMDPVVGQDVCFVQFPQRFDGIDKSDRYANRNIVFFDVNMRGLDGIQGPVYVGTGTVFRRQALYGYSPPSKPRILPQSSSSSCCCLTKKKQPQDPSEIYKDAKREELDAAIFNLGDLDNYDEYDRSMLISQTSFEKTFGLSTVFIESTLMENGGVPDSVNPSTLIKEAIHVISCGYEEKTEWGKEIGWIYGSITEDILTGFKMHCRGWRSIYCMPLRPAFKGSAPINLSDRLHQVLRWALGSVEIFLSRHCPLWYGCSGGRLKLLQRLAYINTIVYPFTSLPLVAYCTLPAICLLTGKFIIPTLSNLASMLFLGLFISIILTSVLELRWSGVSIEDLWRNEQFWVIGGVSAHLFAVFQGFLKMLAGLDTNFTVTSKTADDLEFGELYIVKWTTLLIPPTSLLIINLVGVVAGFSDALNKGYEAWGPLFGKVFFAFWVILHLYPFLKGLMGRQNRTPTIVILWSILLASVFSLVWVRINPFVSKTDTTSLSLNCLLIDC

The first assay covers variants of B1. The following applies: with cesa4_arath CESA4, Q84JA6.
Regarding C37A, the “effect of a mutation on the interaction” value is “decreasing interaction”.

A further assay covers variants of B1. Particulars: with cesa4_arath CESA4, Q84JA6. This is another data set of the same source.
For the variant C79A, the “effect of a mutation on the interaction” value is “decreasing interaction”.

The variants in another assay derive from B1. Particulars: with cesa4_arath CESA4, Q84JA6. This is another data set of the same source.
C64A: the “effect of a mutation on the interaction” value is listed as “decreasing interaction”.

Variants of B2 are the subject of the next assay. The following applies: with cesa8_arath CESA8, Q8LPK5.
Turning to C56A, the “effect of a mutation on the interaction” value is “decreasing interaction”.

The variants in another assay derive from B2. The following applies: with cesa8_arath CESA8, Q8LPK5. The source holds these as a separate data set.
For C64A, the “effect of a mutation on the interaction” value is reported as “decreasing interaction”.

Variants of B2 are the subject of the next assay. The following applies: with cesa8_arath CESA8, Q8LPK5. This is another data set of the same source.
Regarding C79A, the “effect of a mutation on the interaction” value was “decreasing interaction”.

The next assay covers variants of B2. Particulars: with cesa8_arath CESA8, Q8LPK5. The source holds these as a separate data set.
On to C37A, for which the “effect of a mutation on the interaction” value is given as “decreasing interaction”.
